Measured values: article PMC9482650, “Quantitative fragmentomics allow affinity mapping of interactomes” (Nature Communications, 2022)
Substitutions are numbered along the chain they refer to.

T1: ARHGEF11, O15085
T1 sequence (O15085 42-136, limits assumed, looked up): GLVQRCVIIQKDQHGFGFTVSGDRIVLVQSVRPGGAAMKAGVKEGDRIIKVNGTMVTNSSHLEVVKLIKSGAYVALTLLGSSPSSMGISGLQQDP

T2: DFNB31_1, Q9P202
T2 sequence (Q9P202 135-233, limits assumed, looked up): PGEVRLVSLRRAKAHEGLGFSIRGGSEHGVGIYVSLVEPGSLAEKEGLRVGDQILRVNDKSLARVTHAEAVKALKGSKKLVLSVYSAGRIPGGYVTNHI

T3: DFNB31_3, Q9P202
T3 sequence (Q9P202 811-907, limits assumed, looked up): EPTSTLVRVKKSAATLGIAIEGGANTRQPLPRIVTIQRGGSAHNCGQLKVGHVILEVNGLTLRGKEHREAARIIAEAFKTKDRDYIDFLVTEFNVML

T4: DLG3_3, Q92796
T4 sequence (Q92796 374-475, limits assumed, looked up): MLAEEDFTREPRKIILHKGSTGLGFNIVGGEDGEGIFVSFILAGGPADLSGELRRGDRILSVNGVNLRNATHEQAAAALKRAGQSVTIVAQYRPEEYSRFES

T5: GRIP1_3, Q9Y3R0
T5 sequence (Q9Y3R0 247-346, limits assumed, looked up): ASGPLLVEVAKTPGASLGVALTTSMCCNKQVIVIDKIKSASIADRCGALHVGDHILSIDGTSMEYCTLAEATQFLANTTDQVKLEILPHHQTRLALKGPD

T6: GRIP1_4, Q9Y3R0
T6 sequence (Q9Y3R0 467-571, limits assumed, looked up): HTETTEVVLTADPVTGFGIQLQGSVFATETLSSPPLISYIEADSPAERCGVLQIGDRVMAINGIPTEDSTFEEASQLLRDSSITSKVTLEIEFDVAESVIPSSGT

T7: HTRA3, P83110
T7 sequence (P83110 354-453, limits assumed, looked up): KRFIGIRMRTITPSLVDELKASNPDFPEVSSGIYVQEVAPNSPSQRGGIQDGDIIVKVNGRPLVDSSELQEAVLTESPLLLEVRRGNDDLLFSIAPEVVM

T8: LIN7B, Q9HAP6
T8 sequence (Q9HAP6 88-185, limits assumed, looked up): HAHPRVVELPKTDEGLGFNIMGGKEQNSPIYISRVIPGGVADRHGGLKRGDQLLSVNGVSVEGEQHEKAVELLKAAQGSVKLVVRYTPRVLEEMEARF

T9: LIN7C, Q9NUP9
T9 sequence (Q9NUP9 88-185, limits assumed, looked up): T8 sequence (Q9HAP6 88-185, limits assumed, looked up) with A2S, D13E, V35I, V40I, Q65H, S79K, R89K, A96S

T10: MPP7, Q5T2T1
T10 sequence (Q5T2T1 134-230, limits assumed, looked up): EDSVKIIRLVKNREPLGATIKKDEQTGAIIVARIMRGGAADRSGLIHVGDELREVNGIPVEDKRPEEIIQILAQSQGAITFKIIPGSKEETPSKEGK

T11: PDZRN3_1, Q9UPQ7
T11 sequence (Q9UPQ7 244-349, limits assumed, looked up): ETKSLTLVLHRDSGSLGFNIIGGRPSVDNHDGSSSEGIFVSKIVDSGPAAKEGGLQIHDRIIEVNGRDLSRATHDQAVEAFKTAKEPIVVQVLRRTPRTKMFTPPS

T12: SIPA1L2, Q9P2F8
T12 sequence (Q9P2F8 945-1036, limits assumed, looked up): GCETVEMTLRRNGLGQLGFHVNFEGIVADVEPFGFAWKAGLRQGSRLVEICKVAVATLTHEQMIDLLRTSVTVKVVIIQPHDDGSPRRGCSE

T13: SNTA1, Q13424
T13 sequence (Q13424 82-180, limits assumed, looked up): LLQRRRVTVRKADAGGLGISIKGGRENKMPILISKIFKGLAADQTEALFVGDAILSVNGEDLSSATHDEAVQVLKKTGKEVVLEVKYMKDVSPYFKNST


Target: T1, ARHGEF11, O15085
Experiment: holdup assay
Parameters: key: below the threshold = too weak to quantify, mostly under pKd 3.1 to 4
Conditions: plain residues with an end cap or a label only (N-terminal biotin on a linker: ado-ado)

pKd | Binder
below the threshold | SQPLLVHDDV [KIT, P10721]
3.61 | SGDGKTSVWI [GJC1, P36383]

Target: CASK, O14936
Experiment: holdup assay
Parameters: key: below the threshold = too weak to quantify, mostly under pKd 3.1 to 4
Conditions: plain residues with an end cap or a label only (N-terminal biotin on a linker: ado-ado)

Sequence of CASK, O14936 (O14936 487-570): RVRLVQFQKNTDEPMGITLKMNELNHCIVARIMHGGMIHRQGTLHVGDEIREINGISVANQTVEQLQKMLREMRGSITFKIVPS

pKd | Binder
below the threshold | SQPLLVHDDV [KIT, P10721]
below the threshold | SGDGKTSVWI [GJC1, P36383]

Target: T2, DFNB31_1, Q9P202
Experiment: holdup assay
Parameters: key: below the threshold = too weak to quantify, mostly under pKd 3.1 to 4
Conditions: plain residues with an end cap or a label only (N-terminal biotin on a linker: ado-ado)

pKd | Binder
below the threshold | SQPLLVHDDV [KIT, P10721]
3.48 | SGDGKTSVWI [GJC1, P36383]

Target: T3, DFNB31_3, Q9P202
Experiment: holdup assay
Parameters: key: below the threshold = too weak to quantify, mostly under pKd 3.1 to 4
Conditions: plain residues with an end cap or a label only (N-terminal biotin on a linker: ado-ado)

pKd | Binder
below the threshold | SQPLLVHDDV [KIT, P10721]
below the threshold | SGDGKTSVWI [GJC1, P36383]

Target: T4, DLG3_3, Q92796
Experiment: holdup assay
Parameters: key: below the threshold = too weak to quantify, mostly under pKd 3.1 to 4
Conditions: plain residues with an end cap or a label only (N-terminal biotin on a linker: ado-ado)

pKd | Binder
below the threshold | SQPLLVHDDV [KIT, P10721]
below the threshold | SGDGKTSVWI [GJC1, P36383]

Target: DLG4_2, P78352
Experiment: holdup assay
Parameters: key: below the threshold = too weak to quantify, mostly under pKd 3.1 to 4
Conditions: plain residues with an end cap or a label only (N-terminal biotin on a linker: ado-ado)

Sequence of DLG4_2, P78352 (P78352 155-259): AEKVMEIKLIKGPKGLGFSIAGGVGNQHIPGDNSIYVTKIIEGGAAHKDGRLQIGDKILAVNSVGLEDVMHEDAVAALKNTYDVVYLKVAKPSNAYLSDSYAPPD

pKd | Binder
below the threshold | SQPLLVHDDV [KIT, P10721]
3.51 | SGDGKTSVWI [GJC1, P36383]

Target: FRMPD4, Q14CM0
Experiment: holdup assay
Parameters: key: below the threshold = too weak to quantify, mostly under pKd 3.1 to 4
Conditions: plain residues with an end cap or a label only (N-terminal biotin on a linker: ado-ado)

Sequence of FRMPD4, Q14CM0 (Q14CM0 67-160): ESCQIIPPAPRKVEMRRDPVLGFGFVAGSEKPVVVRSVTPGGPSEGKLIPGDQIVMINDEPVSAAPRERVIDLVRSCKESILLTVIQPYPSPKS

pKd | Binder
below the threshold | SQPLLVHDDV [KIT, P10721]
below the threshold | SGDGKTSVWI [GJC1, P36383]

Target: GIPC2, Q8TF65
Experiment: holdup assay
Parameters: key: below the threshold = too weak to quantify, mostly under pKd 3.1 to 4
Conditions: plain residues with an end cap or a label only (N-terminal biotin on a linker: ado-ado)

Sequence of GIPC2, Q8TF65 (Q8TF65 112-203): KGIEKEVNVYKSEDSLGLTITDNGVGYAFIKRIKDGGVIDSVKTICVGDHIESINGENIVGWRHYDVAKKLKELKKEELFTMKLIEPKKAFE

pKd | Binder
below the threshold | SQPLLVHDDV [KIT, P10721]
below the threshold | SGDGKTSVWI [GJC1, P36383]

Target: GOPC, Q9HD26
Experiment: holdup assay
Parameters: key: below the threshold = too weak to quantify, mostly under pKd 3.1 to 4
Conditions: plain residues with an end cap or a label only (N-terminal biotin on a linker: ado-ado)

pKd | Binder
below the threshold | SQPLLVHDDV [KIT, P10721]
below the threshold | SGDGKTSVWI [GJC1, P36383]

Target: GORASP1, Q9BQQ3
Experiment: holdup assay
Parameters: key: below the threshold = too weak to quantify, mostly under pKd 3.1 to 4
Conditions: plain residues with an end cap or a label only (N-terminal biotin on a linker: ado-ado)

Sequence of GORASP1, Q9BQQ3 (Q9BQQ3 1-208): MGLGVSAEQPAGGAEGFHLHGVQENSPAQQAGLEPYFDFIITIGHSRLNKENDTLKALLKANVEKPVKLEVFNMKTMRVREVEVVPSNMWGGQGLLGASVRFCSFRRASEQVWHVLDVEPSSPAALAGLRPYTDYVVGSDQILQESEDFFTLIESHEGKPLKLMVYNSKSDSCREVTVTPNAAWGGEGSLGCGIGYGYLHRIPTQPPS

pKd | Binder
below the threshold | SQPLLVHDDV [KIT, P10721]
4.51 | SGDGKTSVWI [GJC1, P36383]

Target: GORASP2, Q9H8Y8
Experiment: holdup assay
Parameters: key: below the threshold = too weak to quantify, mostly under pKd 3.1 to 4
Conditions: plain residues with an end cap or a label only (N-terminal biotin on a linker: ado-ado)

pKd | Binder
below the threshold | SQPLLVHDDV [KIT, P10721]
5.03 | SGDGKTSVWI [GJC1, P36383]

Target: GRID2IP_1, A4D2P6
Experiment: holdup assay
Parameters: key: below the threshold = too weak to quantify, mostly under pKd 3.1 to 4
Conditions: plain residues with an end cap or a label only (N-terminal biotin on a linker: ado-ado)

Sequence of GRID2IP_1, A4D2P6 (A4D2P6 1-87): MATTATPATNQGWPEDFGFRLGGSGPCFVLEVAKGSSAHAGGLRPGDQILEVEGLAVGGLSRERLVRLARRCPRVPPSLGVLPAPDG

pKd | Binder
below the threshold | SQPLLVHDDV [KIT, P10721]
below the threshold | SGDGKTSVWI [GJC1, P36383]

Target: T5, GRIP1_3, Q9Y3R0
Experiment: holdup assay
Parameters: key: below the threshold = too weak to quantify, mostly under pKd 3.1 to 4
Conditions: plain residues with an end cap or a label only (N-terminal biotin on a linker: ado-ado)

pKd | Binder
below the threshold | SQPLLVHDDV [KIT, P10721]
below the threshold | SGDGKTSVWI [GJC1, P36383]

Target: T6, GRIP1_4, Q9Y3R0
Experiment: holdup assay
Parameters: key: below the threshold = too weak to quantify, mostly under pKd 3.1 to 4
Conditions: plain residues with an end cap or a label only (N-terminal biotin on a linker: ado-ado)

pKd | Binder
below the threshold | SQPLLVHDDV [KIT, P10721]
below the threshold | SGDGKTSVWI [GJC1, P36383]

Target: GRIP2_5, Q9C0E4
Experiment: holdup assay
Parameters: key: below the threshold = too weak to quantify, mostly under pKd 3.1 to 4
Conditions: plain residues with an end cap or a label only (N-terminal biotin on a linker: ado-ado)

Sequence of GRIP2_5, Q9C0E4 (Q9C0E4 544-642): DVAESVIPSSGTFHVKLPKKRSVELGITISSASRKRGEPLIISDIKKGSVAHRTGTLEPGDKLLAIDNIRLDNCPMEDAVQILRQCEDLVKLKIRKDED

pKd | Binder
below the threshold | SQPLLVHDDV [KIT, P10721]
below the threshold | SGDGKTSVWI [GJC1, P36383]

Target: T7, HTRA3, P83110
Experiment: holdup assay
Parameters: key: below the threshold = too weak to quantify, mostly under pKd 3.1 to 4
Conditions: plain residues with an end cap or a label only (N-terminal biotin on a linker: ado-ado)

pKd | Binder
below the threshold | SQPLLVHDDV [KIT, P10721]
5.8 | SGDGKTSVWI [GJC1, P36383]

Target: Inadl_2, Q8NI35
Experiment: holdup assay
Parameters: key: below the threshold = too weak to quantify, mostly under pKd 3.1 to 4
Conditions: plain residues with an end cap or a label only (N-terminal biotin on a linker: ado-ado)

Sequence of Inadl_2, Q8NI35 (Q8NI35 238-335): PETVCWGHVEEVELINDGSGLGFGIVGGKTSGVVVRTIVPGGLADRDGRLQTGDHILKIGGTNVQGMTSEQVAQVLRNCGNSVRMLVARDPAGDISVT

pKd | Binder
below the threshold | SQPLLVHDDV [KIT, P10721]
below the threshold | SGDGKTSVWI [GJC1, P36383]

Target: T8, LIN7B, Q9HAP6
Experiment: holdup assay
Parameters: key: below the threshold = too weak to quantify, mostly under pKd 3.1 to 4
Conditions: plain residues with an end cap or a label only (N-terminal biotin on a linker: ado-ado)

pKd | Binder
below the threshold | SQPLLVHDDV [KIT, P10721]
3.74 | SGDGKTSVWI [GJC1, P36383]

Target: T9, LIN7C, Q9NUP9
Experiment: holdup assay
Parameters: key: below the threshold = too weak to quantify, mostly under pKd 3.1 to 4
Conditions: plain residues with an end cap or a label only (N-terminal biotin on a linker: ado-ado)

pKd | Binder
below the threshold | SQPLLVHDDV [KIT, P10721]
below the threshold | SGDGKTSVWI [GJC1, P36383]

Target: MAGI2_4, Q86UL8
Experiment: holdup assay
Parameters: key: below the threshold = too weak to quantify, mostly under pKd 3.1 to 4
Conditions: plain residues with an end cap or a label only (N-terminal biotin on a linker: ado-ado)

Sequence of MAGI2_4, Q86UL8 (Q86UL8 772-865): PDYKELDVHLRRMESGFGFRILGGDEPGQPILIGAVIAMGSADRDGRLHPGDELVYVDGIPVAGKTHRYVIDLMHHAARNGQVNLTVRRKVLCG

pKd | Binder
below the threshold | SQPLLVHDDV [KIT, P10721]
below the threshold | SGDGKTSVWI [GJC1, P36383]

Target: T10, MPP7, Q5T2T1
Experiment: holdup assay
Parameters: key: below the threshold = too weak to quantify, mostly under pKd 3.1 to 4
Conditions: plain residues with an end cap or a label only (N-terminal biotin on a linker: ado-ado)

pKd | Binder
below the threshold | SQPLLVHDDV [KIT, P10721]
below the threshold | SGDGKTSVWI [GJC1, P36383]

Target: NHERF4_2, Q86UT5
Experiment: holdup assay
Parameters: key: below the threshold = too weak to quantify, mostly under pKd 3.1 to 4
Conditions: plain residues with an end cap or a label only (N-terminal biotin on a linker: ado-ado)

Sequence of NHERF4_2, Q86UT5 (Q86UT5 220-308): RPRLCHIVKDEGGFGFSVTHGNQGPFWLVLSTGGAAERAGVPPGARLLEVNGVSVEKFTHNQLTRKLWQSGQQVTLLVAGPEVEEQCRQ

pKd | Binder
below the threshold | SQPLLVHDDV [KIT, P10721]
below the threshold | SGDGKTSVWI [GJC1, P36383]

Target: T11, PDZRN3_1, Q9UPQ7
Experiment: holdup assay
Parameters: key: below the threshold = too weak to quantify, mostly under pKd 3.1 to 4
Conditions: plain residues with an end cap or a label only (N-terminal biotin on a linker: ado-ado)

pKd | Binder
below the threshold | SQPLLVHDDV [KIT, P10721]
below the threshold | SGDGKTSVWI [GJC1, P36383]

Target: T12, SIPA1L2, Q9P2F8
Experiment: holdup assay
Parameters: key: below the threshold = too weak to quantify, mostly under pKd 3.1 to 4
Conditions: plain residues with an end cap or a label only (N-terminal biotin on a linker: ado-ado)

pKd | Binder
below the threshold | SQPLLVHDDV [KIT, P10721]
below the threshold | SGDGKTSVWI [GJC1, P36383]

Target: T13, SNTA1, Q13424
Experiment: holdup assay
Parameters: key: below the threshold = too weak to quantify, mostly under pKd 3.1 to 4
Conditions: plain residues with an end cap or a label only (N-terminal biotin on a linker: ado-ado)

pKd | Binder
below the threshold | SQPLLVHDDV [KIT, P10721]
below the threshold | SGDGKTSVWI [GJC1, P36383]
